Measurements from US20040077531A1, “Use of galanin-like peptide” (priority 2001, published 2004).

T1: rat-type galanin (SEQ ID NO: 61) (Rattus norvegicus, UniProt P10683)
T1 sequence (P10683 33-61 limits assumed): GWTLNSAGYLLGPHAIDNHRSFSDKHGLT

T2: pig-type ligand peptide (1-60) (SEQ ID NO: 31) (Sus scrofa, UniProt Q9TT95)
T2 construct: made in house
T2 sequence (Q9TT95 23-82): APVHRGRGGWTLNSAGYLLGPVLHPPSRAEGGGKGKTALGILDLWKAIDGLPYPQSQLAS


Columns and labels:
[1] = biological target: T1, rat-type galanin (SEQ ID NO: 61); experiment: Competitive EIA of monoclonal antibodies against rat galanin; type: binding; conditions: B/B0 in the presence of 100 nM immunogen; HRP-labeled SEQ ID NO: 44
[2] = biological target: T2, pig-type ligand peptide (1-60) (SEQ ID NO: 31); experiment: Competitive EIA of monoclonal antibodies against pig-type ligand peptide; type: binding; conditions: B/B0 in the presence of 100 nM immunogen; HRP-labeled SEQ ID NO: 44

| Reactivity Rat Galanin (SEQ ID NO: 61) [1] | Reactivity Pig Ligand (SEQ ID NO: 31) [2] | Molecule |
| --- | --- | --- |
| − (0.80 ≦ (B/B0)) | − (0.80 ≦ (B/B0)) | 1 (protein, Rat) MELAPVNLSEGNGSDPEPPAEPRPLFGIGVENFITLVVFGLIFAMGVLGNSLVITVLARSKPGKPRSTTNLFILNLSIADLAYLLFCIPFQATVYALPTWVLGAFICKFIHYFFTVSMLVSIFTLAAMSVDRYVAIVHSRRSSSLRVSRNALLGVGFIWALSIAMASPVAYYQRLFHRDSNQTFCWEHWPNQLHKKAYVVCTFVFGYLLPLLLICFCYAKVLNHLHKKLKNMSKKSEASKKKTAQTVLVVVVVFGISWLPHHVIHLWAEFGAFPLTPASFFFRITAHCLAYSNSSVNPIIYAFLSENFRKAYKQVFKCRVCNESPHGDAKEKNRIDTPPSTNCTHV |
| − (0.80 ≦ (B/B0)) | + ((B/B0) < 0.50) | 4 (protein, Rat) MELAPVNLSEGNGSDPEPPAEPRPLFGIGVENFITLVVFGLIFAMGVLGNSLVITVLARSKPGKPRSTTNLFILNLSIADLAYLLFCIPFQATVYALPTWVLGAFICKFIHYFFTVSMLVSIFTLAAMSVDRYVAIVHSRRSSSLRVSRNALLGVGFIWALSIAMASPVAYYQRLFHRDSNQTFCWEHWPNQLHKKAYVVCTFVFGYLLPLLLICFCYAKVLNHLHKKLKNMSKKSEASKKKTAQTVLVVVVVFGISWLPHHVIHLWAEFGAFPLTPASFFFRITAHCLAYSNSSVNPIIYAFLSENFRKAYKQVFKCRVCNESPHGDAKEKNRIDTPPSTNCTHV |
| − (0.80 ≦ (B/B0)) | ± (0.50 ≦ (B/B0) < 0.80) | 3 (protein, Rat) MADIQNISLDSPGSVGAVAVPVIFALIFLLGMVGNGLVLAVLLQPGPSAWQEPSSTTDLFILNLAVADLCFILCCVPFQAAIYTLDAWLFGAFVCKTVHLLIYLTMYASSFTLAAVSLDRYLAVRHPLRSRALRTPRNARAAVGLVWLLAALFSAPYLSYYGTVRYGALELCVPAWEDARRRALDVATFAAGYLLPVAVVSLAYGRTLCFLWAAVGPAGAAAAEARRRATGRAGRAMLAVAALYALCWGPHHALILCFWYGRFAFSPATYACRLASHCLAYANSCLNPLVYSLASRHFRARFRRLWPCGRRRHRHHHRAHRALRRVQPASSGPAGYPGDARPRGWSMEPRGDALRGGGETRLTLSPRGPQ |
| − (0.80 ≦ (B/B0)) | + ((B/B0) < 0.50) | 6 (protein, Rat) MADIQNISLDSPGSVGAVAVPVIFALIFLLGMVGNGLVLAVLLQPGPSAWQEPSSTTDLFILNLAVADLCFILCCVPFQAAIYTLDAWLFGAFVCKTVHLLIYLTMYASSFTLAAVSLDRYLAVRHPLRSRALRTPRNARAAVGLVWLLAALFSAPYLSYYGTVRYGALELCVPAWEDARRRALDVATFAAGYLLPVAVVSLAYGRTLCFLWAAVGPAGAAAAEARRRATGRAGRAMLAVAALYALCWGPHHALILCFWYGRFAFSPATYACRLASHCLAYANSCLNPLVYSLASRHFRARFRRLWPCGRRRHRHHHRAHRALRRVQPASSGPAGYPGDARPRGWSMEPRGDALRGGGETRLTLSPRGPQ |
| − (0.80 ≦ (B/B0)) | + ((B/B0) < 0.50) | 2 (protein, Rat) MNGSGSQGAENTSQEGGSGGWQPEAVLVPLFFALIFLVGTVGNALVLAVLLRGGQAVSTTNLFILNLGVADLCFILCCVPFQATIYTLDDWVFGSLLCKAVHFLIFLTMHASSFTLAAVSLDRYLAIRYPLHSRELRTPRNALAAIGLIWGLALLFSGPYLSYYRQSQLANLTVCHPAWSAPRRRAMDLCTFVFSYLLPVLVLSLTYARTLRYLWRTVDPVTAGSGSQRAKRKVTRMIIIVAVLFCLCWMPHHALILCVWFGRFPLTRATYALRILSHLVSYANSCVNPIVYALVSKHFRKGFRKICAGLLRPAPRRASGRVSILAPGNHSGSMLEQESTDLTQVSEAAGPLVPPPALPNCTASSRTLDPAC |
| − (0.80 ≦ (B/B0)) | ± (0.50 ≦ (B/B0) < 0.80) | 5 (protein, Rat) MNGSGSQGAENTSQEGGSGGWQPEAVLVPLFFALIFLVGTVGNALVLAVLLRGGQAVSTTNLFILNLGVADLCFILCCVPFQATIYTLDDWVFGSLLCKAVHFLIFLTMHASSFTLAAVSLDRYLAIRYPLHSRELRTPRNALAAIGLIWGLALLFSGPYLSYYRQSQLANLTVCHPAWSAPRRRAMDLCTFVFSYLLPVLVLSLTYARTLRYLWRTVDPVTAGSGSQRAKRKVTRMIIIVAVLFCLCWMPHHALILCVWFGRFPLTRATYALRILSHLVSYANSCVNPIVYALVSKHFRKGFRKICAGLLRPAPRRASGRVSILAPGNHSGSMLEQESTDLTQVSEAAGPLVPPPALPNCTASSRTLDPAC |
| − (0.80 ≦ (B/B0)) | − (0.80 ≦ (B/B0)) | 8 (protein, Porcine) MPRGCALLLASLLLASALSATLGLGSPVKEKRGWTLNSAGYLLGPHAIDNHRSFHDKYGLAGKRELEPEDEARPGGFDRLQSEDKAIRTIMEFLAFLHLKEAGALGRLPGLPSAASSEDAGQS |
